Measurements taken from PMC4128009.

How the values were obtained:
Test in all cases: pull-down
[1] = target: His6-Spx F113A (Bacillus subtilis) (UniProt O31602)
[2] = target: His6-Spx R112A (Bacillus subtilis) (UniProt O31602)
[3] = target: His6-Spx L114A (Bacillus subtilis) (UniProt O31602)

Q: For “Geobacillus thermodenitrificans YjbH (GtYjbH), without tag (natural protein)”, which decrease of YjbH binding compared to the WT [1] is on record?
A: The decrease of YjbH binding compared to the WT was 80%.

Q: And the decrease of YjbH binding compared to the WT [2]?
A: Its decrease of YjbH binding compared to the WT is 80%.

Q: What about the decrease of YjbH binding compared to the WT [3] of the same substance?
A: The decrease of YjbH binding compared to the WT was 50%.
